From patent publication US20180185504A1 (Regeneron, published 2018)
Like-named read-outs stand apart in the source and are kept apart here.

Legend:
[1] = target: T1, human prolactin receptor (PRLR) (human, UniProt P16471 25-622); test: cell-based or functional assay
T1 sequence: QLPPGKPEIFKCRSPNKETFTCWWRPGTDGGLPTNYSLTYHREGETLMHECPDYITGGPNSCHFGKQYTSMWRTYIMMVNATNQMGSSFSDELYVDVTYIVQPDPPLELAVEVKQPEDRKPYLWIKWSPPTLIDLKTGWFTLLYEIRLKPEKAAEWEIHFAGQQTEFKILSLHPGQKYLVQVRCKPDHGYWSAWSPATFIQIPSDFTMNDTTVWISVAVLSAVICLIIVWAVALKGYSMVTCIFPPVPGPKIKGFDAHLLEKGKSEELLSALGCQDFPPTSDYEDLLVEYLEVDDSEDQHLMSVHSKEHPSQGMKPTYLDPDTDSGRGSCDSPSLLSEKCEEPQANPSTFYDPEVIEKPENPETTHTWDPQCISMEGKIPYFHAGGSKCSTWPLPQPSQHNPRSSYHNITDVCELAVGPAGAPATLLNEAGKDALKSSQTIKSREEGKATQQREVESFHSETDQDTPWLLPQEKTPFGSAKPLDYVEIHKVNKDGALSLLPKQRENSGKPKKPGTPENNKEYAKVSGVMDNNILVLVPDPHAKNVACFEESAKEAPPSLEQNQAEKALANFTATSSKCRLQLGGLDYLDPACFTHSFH

[2] = target: T1, human prolactin receptor (PRLR); test: cell-based or functional assay; remark: listed apart in the source
[3] = target: T1, human prolactin receptor (PRLR); test: cell-based or functional assay; remark: listed apart in the source
[4] = target: T1, human prolactin receptor (PRLR); test: cell-based or functional assay; remark: listed apart in the source
[5] = target: T1, human prolactin receptor (PRLR); test: cell-based or functional assay; remark: listed apart in the source
[6] = target: T1, human prolactin receptor (PRLR); test: cell-based or functional assay; remark: listed apart in the source
[7] = target: T2, human prolactin receptor (PRLR) on cells (human, UniProt P16471 25-622); test: cell-based or functional assay
T2 sequence: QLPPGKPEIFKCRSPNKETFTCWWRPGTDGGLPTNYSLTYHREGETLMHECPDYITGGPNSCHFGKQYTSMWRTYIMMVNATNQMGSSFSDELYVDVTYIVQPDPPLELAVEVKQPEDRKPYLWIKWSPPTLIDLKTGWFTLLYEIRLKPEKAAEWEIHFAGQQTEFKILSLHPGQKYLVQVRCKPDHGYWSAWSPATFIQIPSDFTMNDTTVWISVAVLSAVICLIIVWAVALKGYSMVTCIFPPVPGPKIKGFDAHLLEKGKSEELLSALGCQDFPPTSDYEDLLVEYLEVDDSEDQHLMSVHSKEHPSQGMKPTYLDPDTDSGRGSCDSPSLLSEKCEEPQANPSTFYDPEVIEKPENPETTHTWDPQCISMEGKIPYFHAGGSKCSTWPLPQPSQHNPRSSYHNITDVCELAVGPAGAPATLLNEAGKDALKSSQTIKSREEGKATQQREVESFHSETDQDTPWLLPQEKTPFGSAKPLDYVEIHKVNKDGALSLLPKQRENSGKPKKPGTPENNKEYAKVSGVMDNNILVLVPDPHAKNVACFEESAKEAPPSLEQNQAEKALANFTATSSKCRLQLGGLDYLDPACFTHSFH

[8] = target: T3, dimeric form of human PRLR (Example 12 ELISA) (human); test: blocking ELISA: 10 nM dimeric human PRLR premixed with ADC (520 pM to 30 nM), plate-coated human PRL
T3 construct: PRLR'
T3 sequence (P16471 whole entry, looked up): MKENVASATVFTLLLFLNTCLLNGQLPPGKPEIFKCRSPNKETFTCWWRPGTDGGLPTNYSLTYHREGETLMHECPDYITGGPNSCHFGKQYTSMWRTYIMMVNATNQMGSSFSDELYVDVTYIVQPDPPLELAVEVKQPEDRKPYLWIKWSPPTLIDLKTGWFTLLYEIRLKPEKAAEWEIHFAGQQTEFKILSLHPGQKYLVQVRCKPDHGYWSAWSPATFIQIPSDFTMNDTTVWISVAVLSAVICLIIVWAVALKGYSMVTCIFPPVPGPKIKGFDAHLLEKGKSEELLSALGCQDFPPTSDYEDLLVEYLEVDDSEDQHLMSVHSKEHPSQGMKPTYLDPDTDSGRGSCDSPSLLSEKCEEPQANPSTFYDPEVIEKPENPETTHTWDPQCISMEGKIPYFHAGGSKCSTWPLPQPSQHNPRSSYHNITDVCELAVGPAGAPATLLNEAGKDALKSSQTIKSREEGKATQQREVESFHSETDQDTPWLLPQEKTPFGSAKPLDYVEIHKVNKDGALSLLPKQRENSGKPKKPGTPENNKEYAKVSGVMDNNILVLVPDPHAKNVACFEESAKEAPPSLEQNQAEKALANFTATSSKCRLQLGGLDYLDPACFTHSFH
Procedure: (§1) Dimeric forms of human or cynomolgus monkey (Macaca fascicularis) PRLR and monomeric human PRL were used in this assay. […] After 1-hour incubation, captured PRLR was detected with HRP-conjugated goat anti-Fcγ antibody and visualized with TMB colorimetric substrate by measuring absorbance at 450 nm. […] Mixtures were then added to plates coated with in 1 μg/mL PRL and captured PRLR was detected as described above. Data were analyzed using a four-parameter logistic equation over an 11-point response curve in GraphPad Prism software and IC₅₀ values were calculated.

[9] = target: T4, dimeric form of cynomolgus monkey (Macaca fascicularis) PRLR (Example 12 ELISA) (cynomolgus monkey (Macaca fascicularis)); test: blocking ELISA: 10 nM dimeric monkey PRLR premixed with ADC (520 pM to 30 nM), plate-coated human PRL
T4 construct: also called monkey PRLR
Procedure: as §1

[10] = target: T5, mouse PRLR with an HA tag on HEK293 cells (mouse, UniProt Q08501 20-608); test: FACS on HEK293/mPRLR cells
T5 construct: whole, on cells; also called HEK293/mPRLR; rodent PRLR; not shown: HA tag
T5 sequence (looked up): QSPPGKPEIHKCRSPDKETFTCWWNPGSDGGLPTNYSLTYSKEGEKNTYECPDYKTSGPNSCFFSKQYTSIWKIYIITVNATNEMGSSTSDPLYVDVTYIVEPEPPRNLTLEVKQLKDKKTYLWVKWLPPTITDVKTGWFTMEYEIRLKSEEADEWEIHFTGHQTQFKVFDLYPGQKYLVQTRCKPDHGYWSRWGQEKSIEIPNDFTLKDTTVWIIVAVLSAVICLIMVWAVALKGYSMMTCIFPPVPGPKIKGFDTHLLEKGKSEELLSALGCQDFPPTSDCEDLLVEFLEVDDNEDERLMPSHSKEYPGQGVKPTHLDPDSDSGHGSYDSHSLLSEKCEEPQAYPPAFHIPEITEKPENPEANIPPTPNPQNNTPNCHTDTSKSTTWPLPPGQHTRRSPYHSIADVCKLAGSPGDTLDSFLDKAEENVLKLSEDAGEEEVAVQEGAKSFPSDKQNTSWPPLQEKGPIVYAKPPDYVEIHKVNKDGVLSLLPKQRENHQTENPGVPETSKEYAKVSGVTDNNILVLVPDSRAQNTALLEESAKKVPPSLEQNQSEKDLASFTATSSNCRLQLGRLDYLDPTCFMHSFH

[11] = target: T1, human prolactin receptor (PRLR); test: cell-based or functional assay; remark: listed apart in the source
[12] = target: T1, human prolactin receptor (PRLR); test: cell-based or functional assay; remark: listed apart in the source
[13] = target: T1, human prolactin receptor (PRLR); test: cell-based or functional assay; remark: listed apart in the source
[14] = target: T1, human prolactin receptor (PRLR); test: cell-based or functional assay; remark: listed apart in the source

Row | Binder | % Kill, 293/PRLR cells [1] [%] | % Kill, PC3/PRLR cells [1] [%] | IC50, cell viability, 293/PRLR cells [1] [nM] | IC50, cell viability, PC3/PRLR cells [1] [nM] | % Kill, MCF7/PRLR cells [2] [%] | % Kill, MCF7 cells [2] [%] | % Kill, T47D cells [2] [%] | IC50, cell viability, MCF7/PRLR cells [2] [nM] | IC50, cell viability, MCF7 cells [2] [nM] | IC50, cell viability, T47D cells [2] [nM] | % Kill, MCF7/ATCC cells [4] [%] | % Kill, MCF7/PRLR cells [4] [%] | % Kill, PC3/hPRLR cells [4] [%] | IC50, cell viability, MCF7/ATCC cells [4] [nM] | IC50, cell viability, MCF7/PRLR cells [4] [nM] | IC50, cell viability, PC3/hPRLR cells [4] [nM] | % Kill, T47D cells [5] [%] | IC50, cell viability, T47D cells [5] [nM] | % Kill, MCF7/ATCC cells [6] [%] | % Kill, MCF7/PRLR cells [6] [%] | other results
1 | H1H6958N2-DM1 (antibody, human IgG1, V domains shown, DM1 conjugated through SMCC linker; attachment residues not stated) VH: QVQLVESGGGVVQPGRSLRLSCGASGFTFRNYGMQWVRQGPGKGLEWVTLISFDGNDKYYADSVKGRFTISRDNSKNTLFLQMNSLRTEDTAVYYCARGGDFDYWGQGTLVTVSS VL: DIQMTQSPSSLSASVGDRVTITCRASQDIRKDLGWYQQKPGKAPKRLIYAASSLHSGVPSRFSGSGSGTEFTLTISSLQPEDFATYYCLQHNSYPMYTFGQGTKLEIK | 95 | 83 | 0.1 | 0.43 | 77 | 77 | 71 | 0.19 | 100 | 1.34 | 72 | 83 | 79 | 90 | 0.2 | 0.5 | 100 | 2 | 70 | 80 | IC50, cell viability, T47D cells, + 15 nM PRL [3]: 3 nM; IC50, cell viability, T47D cells, without PRL [3]: 1 nM; IC50, cell viability, MCF7/ATCC cells [6]: 70 nM; IC50, cell viability, MCF7/PRLR cells [6]: 0.2 nM
2 | H1H6958N2-DM1 (antibody, human IgG1, V domains shown, maytansinoid DM1 conjugated to the antibody through an SMCC linker; conjugation sites not stated, also called H1H6958N2-SMCC-DM1; PRLR ADC) VH: QVQLVESGGGVVQPGRSLRLSCGASGFTFRNYGMQWVRQGPGKGLEWVTLISFDGNDKYYADSVKGRFTISRDNSKNTLFLQMNSLRTEDTAVYYCARGGDFDYWGQGTLVTVSS VL: DIQMTQSPSSLSASVGDRVTITCRASQDIRKDLGWYQQKPGKAPKRLIYAASSLHSGVPSRFSGSGSGTEFTLTISSLQPEDFATYYCLQHNSYPMYTFGQGTKLEIK |  |  |  |  |  |  |  |  |  |  |  |  |  |  |  |  |  |  |  |  | IC50, block of PRL-induced STAT5-luciferase activity (2 nM PRL) [7]: 0.4 nM; IC50 [8]: 4.4 nM; IC50 [9]: 4.2 nM
3 | H1H6804P (antibody, human IgG1, V domains shown) VH: QVTLKESGPVLVKPTQTLSLTCTVSGFSLSDAGMGVSWIRQPPGKALEWLAHIFSNDGKSYSTSLKSRLTISKDTSKRQVVLTMTNMDPVDTATYYCARIRTGTYSLYLDYWGQGTLVTVSS VL: DIQMTQSPSSLSASVGDRVTITCRASQSINSYLNWYQQKPGKAPKLLLYFASSLQSGVPSRFSGSGSGTDFTLTISSLQPEDFASYYCQESYSTPWTFGQGTKVEIK |  |  |  |  |  |  |  |  |  |  |  |  |  |  |  |  |  |  |  |  | IC50, block of STAT5 reporter activation by 5 nM PRL in HEK293/hPRLR/STAT5-Luc cells [7]: 8 nM; binding result [10]: no binding
4 | H1H6762P (antibody, human IgG1, V domains shown) VH: QVQLVESGGGVVQPGRSLRLSCAASGFTFSHYGMVWVRQPPGKGLEWVALISFDGTTKYYADSVKGRFTISRDNSKNTLYLQMNSLRAEDTAVYFCVGAIAAAAFDLWGRGTLVTVSS VL: EIVMTQSPATLSVSPGERATLSCRASQSVSSDLAWYQQKPGQAPRLLIYSASARATGIPARFTGSGSGTDFTLTISSLQSEDFAVYYCQQYNNWPMYTFGQGTKLEIK |  |  |  |  |  |  |  |  |  |  |  |  |  |  |  |  |  |  |  |  | IC50, block of STAT5 reporter activation by 5 nM PRL in HEK293/hPRLR/STAT5-Luc cells [7]: 0.022 nM; binding result [10]: no binding
5 | H1H6953N-DM1 (antibody, human IgG1, V domains shown, DM1 conjugated through SMCC linker; attachment residues not stated) VH: EVQLLESGGGLVQPGGTLRLSCAASGFTFSAYAMSWVRQAPGKGLEWVSSINVRAGDTYYADSVKGRFTISRDNSKNTLFLLMNSLRAEDTAAYYCAKARYSSNWGFDFWGQGTLVTVSS VL: DIVMTQSPDSLTVSLGARTTINCQSSQTILHSSNNHNYLAWYQQKPGLPPKLLIYWSSTRESGVPDRFSGSGSGTDFTLTISSLQAEDVAIYYCQQYSNTPYTFGQGTKLEIN | 95 | 67 | 0.28 | 0.86 | 76 | 55 | 79 | 0.29 | 100 | 1.64 | 70 | 80 | 83 | 80 | 0.1 | 0.4 | 100 | 1.5 | 70 | 80 | IC50, cell viability, 293/PRLR cells (PRLR 18X) [11]: 0.43 nM; IC50, cell viability, PC3/PRLR cells (PRLR 13X) [12]: 0.68 nM; IC50, cell viability, MCF7 cells (PRLR 3X) [13]: 82 nM; IC50, cell viability, T47D cells (PRLR 12X) [13]: 1.3 nM; IC50, cell viability, T47D/ErbB2 cells (PRLR 12X) [13]: 2.4 nM; IC50, cell viability, MCF7/PRLR cells (PRLR 55X) [14]: 0.33 nM; IC50, cell viability, MCF/PRLR + ErbB2 cells (PRLR 55X) [14]: 0.33 nM; IC50, cell viability, NCI-N87/PRLR cells (PRLR 6X) [14]: 2.9 nM; IC50, cell viability, MCF7/ATCC cells [6]: 90 nM; IC50, cell viability, MCF7/PRLR cells [6]: 0.3 nM
